# Experiments:
# Assay in all cases: binding of Fab e20 to H77 E1E2 alanine mutants; method not stated
# [1] = biological target: H77 E1E2 mutant G530A (Hepatitis C virus genotype 1a, H77) (UniProt P27958)
# [2] = biological target: H77 E1E2 mutant I413A (Hepatitis C virus genotype 1a, H77) (UniProt P27958)
# [3] = biological target: H77 E1E2 mutant T414A (Hepatitis C virus genotype 1a, H77) (UniProt P27958)
# [4] = biological target: H77 E1E2 mutant Y486A (Hepatitis C virus genotype 1a, H77) (UniProt P27958)
# [5] = biological target: T1, H77 E1E2 mutant Q412A (Hepatitis C virus genotype 1a, H77, UniProt P27958 384-746)
# T1 construct: Co-expressed with E1; P27958 is the whole polyprotein
# [6] = biological target: T2, H77 E1E2 mutant N415A (Hepatitis C virus genotype 1a, H77, UniProt P27958 384-746)
# T2 construct: Co-expressed with E1; P27958 is the whole polyprotein
# [7] = biological target: T3, H77 E1E2 mutant T416A (Hepatitis C virus genotype 1a, H77, UniProt P27958 384-746)
# T3 construct: Co-expressed with E1; P27958 is the whole polyprotein
# [8] = biological target: T4, H77 E1E2 mutant N417A (Hepatitis C virus genotype 1a, H77, UniProt P27958 384-746)
# T4 construct: Co-expressed with E1; P27958 is the whole polyprotein
# [9] = biological target: T5, H77 E1E2 mutant G418A (Hepatitis C virus genotype 1a, H77, UniProt P27958 384-746)
# T5 construct: Co-expressed with E1; P27958 is the whole polyprotein
# [10] = biological target: T6, H77 E1E2 mutant S419A (Hepatitis C virus genotype 1a, H77, UniProt P27958 384-746)
# T6 construct: Co-expressed with E1; P27958 is the whole polyprotein
# [11] = biological target: T7, H77 E1E2 mutant W420A (Hepatitis C virus genotype 1a, H77, UniProt P27958 384-746)
# T7 construct: Co-expressed with E1; P27958 is the whole polyprotein
# [12] = biological target: T8, H77 E1E2 mutant H421A (Hepatitis C virus genotype 1a, H77, UniProt P27958 384-746)
# T8 construct: Co-expressed with E1; P27958 is the whole polyprotein
# [13] = biological target: T9, H77 E1E2 mutant I422A (Hepatitis C virus genotype 1a, H77, UniProt P27958 384-746)
# T9 construct: Co-expressed with E1; P27958 is the whole polyprotein
# [14] = biological target: T10, H77 E1E2 mutant N423A (Hepatitis C virus genotype 1a, H77, UniProt P27958 384-746)
# T10 construct: Co-expressed with E1; P27958 is the whole polyprotein
# [15] = biological target: T11, H77 E1E2 mutant R483A (Hepatitis C virus genotype 1a, H77, UniProt P27958 384-746)
# T11 construct: Co-expressed with E1; P27958 is the whole polyprotein
# [16] = biological target: T12, H77 E1E2 mutant P484A (Hepatitis C virus genotype 1a, H77, UniProt P27958 384-746)
# T12 construct: Co-expressed with E1; P27958 is the whole polyprotein
# [17] = biological target: T13, H77 E1E2 mutant W487A (Hepatitis C virus genotype 1a, H77, UniProt P27958 384-746)
# T13 construct: Co-expressed with E1; P27958 is the whole polyprotein
# [18] = biological target: T14, H77 E1E2 mutant H488A (Hepatitis C virus genotype 1a, H77, UniProt P27958 384-746)
# T14 construct: Co-expressed with E1; P27958 is the whole polyprotein
# [19] = biological target: T15, H77 E1E2 mutant Y527A (Hepatitis C virus genotype 1a, H77, UniProt P27958 384-746)
# T15 construct: Co-expressed with E1; P27958 is the whole polyprotein
# [20] = biological target: T16, H77 E1E2 mutant N532A (Hepatitis C virus genotype 1a, H77, UniProt P27958 384-746)
# T16 construct: Co-expressed with E1; P27958 is the whole polyprotein
# [21] = biological target: T17, H77 E1E2 mutant D533A (Hepatitis C virus genotype 1a, H77, UniProt P27958 384-746)
# T17 construct: Co-expressed with E1; P27958 is the whole polyprotein
# [22] = biological target: T18, H77 E1E2 mutant T534A (Hepatitis C virus genotype 1a, H77, UniProt P27958 384-746)
# T18 construct: Co-expressed with E1; P27958 is the whole polyprotein
# [23] = biological target: T19, H77 E1E2 mutant D535A (Hepatitis C virus genotype 1a, H77, UniProt P27958 384-746)
# T19 construct: Co-expressed with E1; P27958 is the whole polyprotein
# [24] = biological target: T20, H77 E1E2 mutant N540A (Hepatitis C virus genotype 1a, H77, UniProt P27958 384-746)
# T20 construct: Co-expressed with E1; P27958 is the whole polyprotein
# [25] = biological target: T21, H77 E1E2 mutant R543A (Hepatitis C virus genotype 1a, H77, UniProt P27958 384-746)
# T21 construct: Co-expressed with E1; P27958 is the whole polyprotein
# [26] = biological target: T22, H77 E1E2 mutant P544A (Hepatitis C virus genotype 1a, H77, UniProt P27958 384-746)
# T22 construct: Co-expressed with E1; P27958 is the whole polyprotein
# [27] = biological target: T23, H77 E1E2 mutant P545A (Hepatitis C virus genotype 1a, H77, UniProt P27958 384-746)
# T23 construct: Co-expressed with E1; P27958 is the whole polyprotein
# [28] = biological target: T24, H77 E1E2 mutant G547A (Hepatitis C virus genotype 1a, H77, UniProt P27958 384-746)
# T24 construct: Co-expressed with E1; P27958 is the whole polyprotein
# [29] = biological target: T25, H77 E1E2 mutant W549A (Hepatitis C virus genotype 1a, H77, UniProt P27958 384-746)
# T25 construct: Co-expressed with E1; P27958 is the whole polyprotein
# [30] = biological target: T26, H77 E1E2 mutant F550A (Hepatitis C virus genotype 1a, H77, UniProt P27958 384-746)
# T26 construct: Co-expressed with E1; P27958 is the whole polyprotein
binder,measurement,setting,value
"Fab e20 (Fab, V domains shown, also called e20 antibody fragment) VH: LLEQSGAEVKKPGSSVKVSCKASGDHYGINWVRQAPGQGLEWMGGIIPVFGTTTYAQKFQGRATITADDSTGTAFLELTRLTFDDTAVYFCATPHQLHVLRGGKALSPWDYWGQGT VL: MAELTQSPATLSVSPGERATLSCRASQSVSSNLAWYQQKRGQAPSLLIYGTSTRATGIPARFSGSGSGTEFTLTISSLQSEDFAVYYCQQYNDWPSTFGQGT",e20 binding activity (% of wild-type H77) (% of wild-type H77),[1],3
same,e20 binding activity (% of wild-type H77) (% of wild-type H77),[2],100
same,e20 binding activity (% of wild-type H77) (% of wild-type H77),[3],95
same,e20 binding activity (% of wild-type H77) (% of wild-type H77),[4],95
same,e20 binding activity (% of wild-type H77),[5],100 % of wild-type H77
same,e20 binding activity (% of wild-type H77),[6],98 % of wild-type H77
same,e20 binding activity (% of wild-type H77),[7],96 % of wild-type H77
same,e20 binding activity (% of wild-type H77),[8],97 % of wild-type H77
same,e20 binding activity (% of wild-type H77),[9],100 % of wild-type H77
same,e20 binding activity (% of wild-type H77),[10],100 % of wild-type H77
same,e20 binding activity (% of wild-type H77),[11],97 % of wild-type H77
same,e20 binding activity (% of wild-type H77),[12],100 % of wild-type H77
same,e20 binding activity (% of wild-type H77),[13],100 % of wild-type H77
same,e20 binding activity (% of wild-type H77),[14],100 % of wild-type H77
same,e20 binding activity (% of wild-type H77),[15],100 % of wild-type H77
same,e20 binding activity (% of wild-type H77),[16],100 % of wild-type H77
same,e20 binding activity (% of wild-type H77),[17],100 % of wild-type H77
same,e20 binding activity (% of wild-type H77),[18],100 % of wild-type H77
same,e20 binding activity (% of wild-type H77),[19],92 % of wild-type H77
same,e20 binding activity (% of wild-type H77),[20],100 % of wild-type H77
same,e20 binding activity (% of wild-type H77),[21],100 % of wild-type H77
same,e20 binding activity (% of wild-type H77),[22],100 % of wild-type H77
same,e20 binding activity (% of wild-type H77),[23],10 % of wild-type H77
same,e20 binding activity (% of wild-type H77),[24],70 % of wild-type H77
same,e20 binding activity (% of wild-type H77),[25],68 % of wild-type H77
same,e20 binding activity (% of wild-type H77),[26],72 % of wild-type H77
same,e20 binding activity (% of wild-type H77),[27],97 % of wild-type H77
same,e20 binding activity (% of wild-type H77),[28],98 % of wild-type H77
same,e20 binding activity (% of wild-type H77),[29],96 % of wild-type H77
same,e20 binding activity (% of wild-type H77),[30],94 % of wild-type H77
